Results from patent US20190062438A1 (CSL, published 2019).

How the values were obtained:
shCD131 T106A = biological target: T1, shCD131 T106A (human, UniProt P32927 17-438); experiment: SPR, kinetics, Fab over captured mutant
T1 construct: C-terminal 6xHis
T1 sequence: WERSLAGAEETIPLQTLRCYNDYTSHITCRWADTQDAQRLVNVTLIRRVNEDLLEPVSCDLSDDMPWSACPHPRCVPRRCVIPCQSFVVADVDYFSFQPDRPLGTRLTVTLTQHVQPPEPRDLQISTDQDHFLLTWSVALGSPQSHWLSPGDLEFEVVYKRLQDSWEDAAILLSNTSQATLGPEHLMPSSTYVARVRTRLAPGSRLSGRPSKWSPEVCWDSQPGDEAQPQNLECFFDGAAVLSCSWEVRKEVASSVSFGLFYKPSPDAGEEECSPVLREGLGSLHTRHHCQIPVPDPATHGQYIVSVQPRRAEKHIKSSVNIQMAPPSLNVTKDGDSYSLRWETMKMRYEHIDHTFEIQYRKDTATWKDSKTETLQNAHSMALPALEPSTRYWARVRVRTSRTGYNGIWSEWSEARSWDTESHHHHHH

shCD131 M340A = biological target: T2, shCD131 M340A (human, UniProt P32927 17-438); experiment: SPR, steady state, Fab over captured mutant
T2 construct: C-terminal 6xHis
T2 sequence: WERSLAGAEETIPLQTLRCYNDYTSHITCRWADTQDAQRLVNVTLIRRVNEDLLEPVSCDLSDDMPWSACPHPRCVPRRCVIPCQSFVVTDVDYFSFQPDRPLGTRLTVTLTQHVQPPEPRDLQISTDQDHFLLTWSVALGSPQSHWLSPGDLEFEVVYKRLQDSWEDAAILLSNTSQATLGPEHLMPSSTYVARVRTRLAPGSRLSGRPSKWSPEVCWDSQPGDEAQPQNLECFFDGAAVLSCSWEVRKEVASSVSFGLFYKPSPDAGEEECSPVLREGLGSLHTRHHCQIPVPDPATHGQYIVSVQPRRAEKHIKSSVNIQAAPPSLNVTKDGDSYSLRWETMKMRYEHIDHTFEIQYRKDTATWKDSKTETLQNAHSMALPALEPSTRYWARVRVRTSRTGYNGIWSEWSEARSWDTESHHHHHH
Protocol: (§1) For some analysis purified Fab was injected over each flow cell for 3 minutes and dissociation was monitored for a further 10 minutes. Regeneration of the surface was performed after each cycle with a 40 second injection of 25 mM glycine, pH 2.0. The analysis was performed with Fabs at several concentrations between 100 and 0.31 nM, with each concentration analyzed twice and in random order. The analysis was performed at a flow rate of 30 μl/min in HBS-EP buffer (10 mM Hepes, 150 mM NaCl, 3 mM EDTA, 0.005% Tween 20, pH 7.4) at 37° C. Responses from spots 2 and 4 of each flow cell, (in which shβc was not captured, but otherwise treated identically), were subtracted from those of spots 1 and 5 respectively to produce reference subtracted data. Reference subtracted responses from a blank injection comprising buffer alone were subtracted from the resultant sensorgrams to produce double referenced data suitable for kinetic analysis. Double-referenced sensorgrams were fitted using non-linear regression to a model describing 1:1 kinetics, including a term for mass transport limitation. The Rₘₐₓ value was fitted locally to account for slight deviations in the level of sCD131 captured, with association rate (kₐ), dissociation rate (kd) and equilibrium dissociation constant (KD) fitted globally.
(§2) Mapping of the shCD131 epitope was performed by measurement of the affinity of Fabs for various alanine point mutants of shCD131 essentially as described above, with the following exceptions. Each shCD131 mutant was captured for 120 seconds at concentrations between 1 and 5 μg/ml. For kinetic analysis, purified recombinant Fabs were injected for 2 minutes, and dissociation was monitored for a further 2 minutes. […] Fab concentrations ranged from 16 μM to 3.9 nM in two-fold dilutions. The assays were conducted at 25° C. All sensorgrams were reference subtracted as described above. For determination of steady-state affinity (KD only), the response at the end of the binding phase was used to fit the data to a single-site binding model. Kinetic parameters were determined as described above.

shCD131 T40A = biological target: T3, shCD131 T40A (human, UniProt P32927 17-438); experiment: SPR, steady state, Fab over captured mutant
T3 construct: C-terminal 6xHis
T3 sequence: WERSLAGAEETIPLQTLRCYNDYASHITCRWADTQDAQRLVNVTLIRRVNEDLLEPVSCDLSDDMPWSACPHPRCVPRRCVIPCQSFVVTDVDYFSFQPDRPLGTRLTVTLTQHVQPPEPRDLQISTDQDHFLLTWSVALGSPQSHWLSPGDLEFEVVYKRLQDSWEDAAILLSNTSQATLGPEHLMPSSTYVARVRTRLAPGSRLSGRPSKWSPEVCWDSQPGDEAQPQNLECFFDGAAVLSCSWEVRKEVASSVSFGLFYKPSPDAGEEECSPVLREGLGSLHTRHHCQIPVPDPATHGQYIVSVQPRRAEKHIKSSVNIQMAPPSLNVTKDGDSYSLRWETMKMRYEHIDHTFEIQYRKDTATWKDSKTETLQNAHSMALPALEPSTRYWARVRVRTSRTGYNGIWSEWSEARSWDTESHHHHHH
Protocol: as §1, §2

Kd (shCD131 T106A): 5.8 nM | Kd (shCD131 M340A): 235 nM | Kd (shCD131 T40A): 236 nM
B1: 9A2 Fab (Fab, V domains shown)
VH: EVQLLESGGGLVQPGGSLRLSCAASGFTFSHYHMLWVRQAPGKGLEWVSSIRSSGGFTYYADSVKGRFTISRDNSKNTLYLQMNSLRAEDTAVYYCARFYDSFFDIWGQGTMVTVSS
VL: DIQMTQSPSSVSASVGDRVTITCRASQGISSWLAWYQQKPGKAPKLLIYAASSLQSGVPSRFSGSGSGTDFTLTISSLQPEDFATYYCQQANSFPITFGQGTRLEIKR
notes: also called recombinant Fab of 9A2
